{
  "source": "patent US11994512B2",
  "about": "“Single-cell genomic methods to generate ex vivo cell systems that recapitulate in vivo biology with improved fidelity” (Massachusetts Institute of Technology, priority 2018, dated 2024)",
  "test_system": "intracellular proteome of ENR+CD and ENR organoids",
  "assay": "LC-MS/MS TMT proteomics of ENR+CD versus ENR organoids",
  "assay_type": "cell-based, C57BL/6 mice",
  "settings": "for Average logFC: ENR+CD versus ENR organoids, sample pairs in aggregate (n=4, 2 technical replicates from two biological donors); for M1-1 Log2 Median Normalized / M1-2 Log2 Median Normalized / M2-1 Log2 Median Normalized / M2-2 Log2 Median Normalized: protein abundance ratio ENR+CD versus ENR organoids, LC-MS/MS TMT proteomics; for M1-1 Log2 Median Normalized: sample pair M1-1; for M1-2 Log2 Median Normalized: sample pair M1-2; for M2-1 Log2 Median Normalized: sample pair M2-1; for M2-2 Log2 Median Normalized: sample pair M2-2; for change: up = enriched in ENR+CD, down = enriched in ENR, FDR<0.05 and log fold change cut-off",
  "data": [
    {"molecule": "Q5DQR4 (protein, UniProt Q5DQR4 1-1185, looked up, full-length) MKKFNFRKVLDGLTASSPGSGSSSGSNSGGAGSGSVHPGGTAGLPREEIQESLTSDYFQICKTVRHGFPYQPTALAFDPVQKILAIGTRTGAIRILGRPGVDCYCQHESGAAVLQLQFLINEGALVSASSDDTLHLWNLRQKRPAILHSLKFNRERITYCHLPFQSKWLYVGTERGNTHIVNIESFILSGYVIMWNKAIELSTKTHPGPVVHLSDSPRDEGKLLIGYENGTVVFWDLKSKRAELRVYYDEAIHSIDWHHEGKQFMCSHSDGSLTLWNLKSPSRPFQTTVPHGKSQREGRKSESCKPILKVEYKTCRNSEPFIIFSGGLSYDKACRRPSLTIMHGKAITVLEMDHPIVEFLTLCETPYPNEFQEPYAVAVLLEKDLIVVDLTQTNFPIFENPYPMDIHESPVTCTAYFADCPPDLILVLYSIGVKHKKQGYSNKEWPVSGGAWNLGAQTYPEIIITGHADGTIKFWDASAMTLQMLYKLKTSKVFEKQKAGEGKQTCELVEEDPFAVQMIYWCPESRIFCVSGVSAYVIIYKFSRHEVTTEIVSLEVRLQCDVEDIITPEPETSPPFPDLSSQLPPSRSLSGSTNTVSSEGVTKDSIPCLSVKTRPVRMPPGYQADLVIQLVWVDGEPPQQITSLSISSAYGIVAFGNCTGLVVVDFIQKTVLLSMGTIDLYRSSDLYQRQPRSPRKNRQFIADNFCMRGLSNFYPDLTKRIRTSYQSLTELNDSPVPLELERCKSPTSDHVNGHCTSPTSQSCSSGKRLSSADVSKVNRWGPGRPPFRKAQSAACMEISLPVTTEETRENSYNRSRSSSISSIDKDSKEAITALYFMESFARKNDSTVSPCLFVGTSLGMVVLISLNLPSSDEQRFTEPVVVLPSGTFLSLKGAVLTFSCMDRTGSLMQPPYEVWRDPNNTDENEKTWKRKLVMNYSSSSQEMGDHQYTIICSEKQAKVFSLPSQTCLYVHNITETSFILQADVVVMCNSACLACFCANGHIMIMSLPSLRPMLDVNYLPLTDMRIARTFCFTNEGQALYLVSPTEIQRLTYSQEMCDNIQDMLGDLFTPIETPEAQNRGFLKGLFGGSGQTFDREELFGEASAGKASRSLAQHIPGPGSIEGMKGAAGGVMGELTRARIALDERGQRLGELEEKTAGMMTSAEAFSKHAHELMLKYKDKKWYQF", "values": [
      {"measurement": "Average logFC", "value": 1.147},
      {"measurement": "M1-1 Log2 Median Normalized", "value": 1.316},
      {"measurement": "M1-2 Log2 Median Normalized", "value": 0.966},
      {"measurement": "M2-1 Log2 Median Normalized", "value": 1.1715},
      {"measurement": "M2-2 Log2 Median Normalized", "value": 1.133},
      {"measurement": "change", "value": "up"}
    ]},
    {"molecule": "Q5HZI2 (protein, UniProt Q5HZI2 1-419, looked up, full-length) MRKTNMWFLERLRGSGENGASRGEAGDKSSKGPLYSNVLTPDKIPDFFIPPKLPSGPTEAEGQADLGPSTSEQNLASPGPRRAPRSPRLPAKLASESRSLLKAATRHVIQIESAEDWTAEEATNADPQAQGAMSLPSVPKAQTSYGFATLAESPHTRRKESLFHSEHGALAQVGSPGAGRRRAGAKGNGGDGGSREVGGALMSPSRYFSGGESDTGSSAESSPFGSPLLSRSVSLLKGFAQDSQAKVSQLKQSVGRHGSLSADDSTPDTSPGVRRRLSRRATPEPGPESGQAPRGEHTVKMGTRGSVRLLAEYEAAQARLRVRLLAAEGLYDRPCDARSINCCVGLCLVPGKLQKQRSTIIKNSRHPIFNEDFFFDGLGPASVRKLALRIKVVNKGSSLKRDTLLGEEELPLTSLLPFL", "values": [
      {"measurement": "Average logFC", "value": 1.158},
      {"measurement": "M1-1 Log2 Median Normalized", "value": 0.822},
      {"measurement": "M1-2 Log2 Median Normalized", "value": 0.518},
      {"measurement": "M2-1 Log2 Median Normalized", "value": 1.5305},
      {"measurement": "M2-2 Log2 Median Normalized", "value": 1.762},
      {"measurement": "change", "value": "up"}
    ]},
    {"molecule": "Q60604 (protein, UniProt Q60604 1-715, looked up, full-length) MAQELQHPEFARAGQQAGLQVWRVEKLELVPVPQGAYGDFYVGDAYLVLHTTKSSRGFSYRLHFWLGKECSQDESTAAAIFTVQMDDYLGGKPVQSRELQGYESTDFVGYFKGGLKYKAGGVASGLNHVLTNDLTAKRLLHVKGRRVVRATEVPLSWESFNKGDCFIIDLGTEIYQWCGSSCNKYERLKASQVAIGIRDNERKGRSQLIVVEEGSEPSELMKVLGRKPELPDGDNDDDVVADISNRKMAKLYMVSDASGSMKVTLVAEENPFSMGMLLSEECFILDHGAAKQIFVWKGKNANPQERKTAMKTAEEFLQKMKYSTNTQIQVLPEGGETPIFKQFFKDWKDKDQSDGFGKVYITEKVAQIKQIPFDASKLHSSPQMAAQHNMVDDGSGGVEIWRVENSGRVQIDPSSYGEFYGGDCYIILYTYPRGQIIYTWQGANATRDELTMSAFLTVQLDRSLGGQAVQVRVSQGKEPAHLLSLFKDKPLIIYKNGTSKKEGQAPAPPTRLFQVRRNLASITRIVEVDVDANSLNSNDTFVLKLPRNNGFIWIGKGASQEEEKGAEYVADVLKCKASRIQEGKEPEEFWNSLGGRGDYQTSPLLETRAEDHPPRLYGCSNKTGRFIIEEVPGEFTQDDLAEDDVMLLDAWEQIFIWIGKDANEVEKKESVKSAKMYLETDPSGRDKRTPIVIIKQGHEPPTFTGWFLGWDSSRW", "values": [
      {"measurement": "Average logFC", "value": "−1.3"},
      {"measurement": "M1-1 Log2 Median Normalized", "value": "−1.236"},
      {"measurement": "M1-2 Log2 Median Normalized", "value": "−2.062"},
      {"measurement": "M2-1 Log2 Median Normalized", "value": "−1.8295"},
      {"measurement": "M2-2 Log2 Median Normalized", "value": "−0.073"},
      {"measurement": "change", "value": "down"}
    ]},
    {"molecule": "Q60673 (protein, UniProt Q60673 1-979, looked up, full-length) MRRPRRPGGSGGSGGSGGLRLLVCLLLLSGRPGGCSAISAHGCLFDRRLCSHLEVCIQDGLFGQCQAGVGQARPLLQVTSPVLQRLQGVLRQLMSQGLSWHDDLTQHVISQEMERIPRLRPPEPHPRDRSGLVPRKPGPAGELLTQGNPTGSSPAAQGFPRPAGGRSWGGSPLSSLQAELLPPLLEHLLMPPQPPHPALTYEPALLQPYLFHQFGSRDGSRGSESSSGVVGVGHLSKAEGPALFSRSASKAILGTHSGHSFGDLTGPSPAQLFQDSGLLYMAQELPVPGRARAPRLPENGGNRAEDSSEGHEEEVLGGRGEKSPPQAAQPELSLQRLTAVLAGYGVELRQLTPEQFSTLLTLLQLLPKGTGRNLEGAVNVGGADVKKTIQQMQRGDPAEALPPTPSLPGYLTASPASSEVQQVLSPGFPEPPHTPSPLGSSSVLLEKKSPLGQSQPTVVGRPSARPSAEEYGYIVTDQKPLSLVAGVRLLEILAEHVHMSSGSFINISVVGPAVTFRIRHNEQNLSLADVTQQAGLVKSELEAQTGLQILQTGVGQREEAAEVLPRQAHGISPMRSVLLTLVALAGVAGLLVALAVALCMRHHSRQRDKERLAALGPEGAHGDTTFEYQDLCRQHMATKSLFNRAEGQPEPSRVSSVSSQFSDAAQASPSSHSSTPSWCEEPAQANMDISTGHMILAYMEDHLRNRDRLAKEWQALCAYQAEPNTCAAAQDESNIKKNRHPDFLPYDHARIKLKVESSPSRSDYINASPIIEHDPRMPAYIATQGPLSHTIADFWQMVWESGCTVIVMLTPLVEDGVKQCDRYWPDEGSSLYHVYEVNLVSEHIWCEDFLVRSFYLKNLQTQETRTLTQFHFLSWPAEGTPASTRPLLDFRRKVNKCYRGRSCPIIVHCSDGAGRTGTYILIDMVLNRMAKGVKEIDIAATLEHVRDQRPGLVRSKDQFEFALTAVAEEVNAILKALPQ", "values": [
      {"measurement": "Average logFC", "value": 1.189},
      {"measurement": "M1-1 Log2 Median Normalized", "value": 1.189},
      {"measurement": "M1-2 Log2 Median Normalized", "value": 1.249},
      {"measurement": "M2-1 Log2 Median Normalized", "value": 0.8005},
      {"measurement": "M2-2 Log2 Median Normalized", "value": 1.265},
      {"measurement": "change", "value": "up"}
    ]},
    {"molecule": "Q61263 (protein, UniProt Q61263 1-540, looked up, full-length) MSLRNRLSKSGENPEQDEAQKNFMDTYRNGHITMKQLIAKKRLLAAEAEELKPLFMKEVGCHFDDFVTNLIEKSASLDNGGCALTTFSILEEMKKNHRAKDLRAPPEQGKIFISRQSLLDELFEVDHIRTIYHMFIALLILFVLSTIVVDYIDEGRLVLEFNLLAYAFGKFPTVIWTWWAMFLSTLSIPYFLFQRWAHGYSKSSHPLIYSLVHGLLFLVFQLGVLGFVPTYVVLAYTLPPASRFILILEQIRLIMKAHSFVRENIPRVLNAAKEKSSKDPLPTVNQYLYFLFAPTLIYRDNYPRTPTVRWGYVAMQFLQVFGCLFYVYYIFERLCAPLFRNIKQEPFSARVLVLCVFNSILPGVLILFLSFFAFLHCWLNAFAEMLRFGDRMFYKDWWNSTSYSNYYRTWNVVVHDWLYYYVYKDLLWFFSKRFKSAAMLAVFALSAVVHEYALAICLSYFYPVLFVLFMFFGMAFNFIVNDSRKRPIWNIMVWASLFLGYGLILCFYSQEWYARQHCPLKNPTFLDYVRPRTWTCRYVF", "values": [
      {"measurement": "Average logFC", "value": 1.308},
      {"measurement": "M1-1 Log2 Median Normalized", "value": 1.563},
      {"measurement": "M1-2 Log2 Median Normalized", "value": 2.15},
      {"measurement": "M2-1 Log2 Median Normalized", "value": 1.0245},
      {"measurement": "M2-2 Log2 Median Normalized", "value": 0.494},
      {"measurement": "change", "value": "up"}
    ]},
    {"molecule": "Q61391 (protein, UniProt Q61391 1-750, looked up, full-length) MGRSESQMDITDINAPKPKKKQRWTPLEISLSVLVLLLTIIAVTMIALYATYDDGICKSSDCIKSAARLIQNMDASVEPCTDFFKYACGGWLKRNVIPETSSRYSNFDILRDELEVILKDVLQEPKTEDIVAVQKAKTLYRSCINESAIDSRGGQPLLKLLPDIYGWPVASDNWDQTYGTSWTAEKSIAQLNSKYGKKVLINFFVGTDDKNSTQHIIHFDQPRLGLPSRDYYECTGIYKEACTAYVDFMISVARLIRQEQSLPIDENQLSLEMNKVMELEKEIANATTKPEDRNDPMLLYNKMTLAKLQNNFSLEVNGKSFSWSNFTNEIMSTVNINIQNEEEVVVYAPEYLTKLKPILTKYSPRDLQNLMSWRFIMDLVSSLSRNYKESRNAFRKALYGTTSETATWRRCANYVNGNMENAVGRLYVEAAFAGESKHVVEDLIAQIREVFIQTLDDLTWMDAETKKKAEEKALAIKERIGYPDDIISNENKLNNEYLELNYREDEYFENIIQNLKFSQSKQLKKLREKVDKDEWISGAAVVNAFYSSGRNQIVFPAGILQPPFFSAQQSNSLNYGGIGMVIGHEITHGFDDNGRNFNKDGDLVDWWTQQSANNFKDQSQCMVYQYGNFSWDLAGGQHLNGINTLGENIADNGGIGQAYRAYQNYVKKNGEEKLLPGLDLNHKQLFFLNFAQVWCGTYRPEYAVNSIKTDVHSPGNFRIIGTLQNSAEFADAFHCRKNSYMNPERKCRVW", "values": [
      {"measurement": "Average logFC", "value": "−1.133"},
      {"measurement": "M1-1 Log2 Median Normalized", "value": "−0.83"},
      {"measurement": "M1-2 Log2 Median Normalized", "value": "−1.694"},
      {"measurement": "M2-1 Log2 Median Normalized", "value": 1.3345},
      {"measurement": "M2-2 Log2 Median Normalized", "value": "−0.675"},
      {"measurement": "change", "value": "down"}
    ]},
    {"molecule": "Q62395 (protein, UniProt Q62395 1-81, looked up, full-length) METRALWLMLLVVLVAGSSGIAADYVGLSPSQCMVPANVRVDCGYPSVTSEQCNNRGCCFDSSIPNVPWCFKPLQETECTF", "values": [
      {"measurement": "Average logFC", "value": 1.185},
      {"measurement": "M1-1 Log2 Median Normalized", "value": 1.037},
      {"measurement": "M1-2 Log2 Median Normalized", "value": 1.294},
      {"measurement": "M2-1 Log2 Median Normalized", "value": 0.4235},
      {"measurement": "M2-2 Log2 Median Normalized", "value": 1.984},
      {"measurement": "change", "value": "up"}
    ]}
  ]
}
